{
  "source": "patent US20170044259A1",
  "about": "(CYTOMX THERAPEUTICS, published 2017)",
  "binders": {"B1": {"name": "PD-1 1.5 PD010 2001 (antibody, human IgG4 S228P, kappa)", "heavy": "not shown", "light": "QGQSGQGGLCSWYLSSSGLCVDGGGSSGGSISSGLLSGRSDNHGGGSDIQLTQSPSSLSASVGDRVTITCRASESVDAYGISFMNWFQQKPGKAPKLLIYAASNQGSGVPSRFSGSGSGTDFTLTISSMQPEDFATYYCQQSKDVPWTFGQGTKLEIKRTVAAPSVFIFPPSDEQLKSGTASVVCLLNNFYPREAKVQWKVDNALQSGNSQESVTEQDSKDSTYSLSSTLTLSKADYEKHKVYACEVTHQGLSSPVTKSFNRGEC"}, "B2": {"name": "PD-1 1.5 PD003 2001 (antibody, human IgG4 S228P, kappa)", "heavy": "not shown", "light": "B1 light with G8L, L9V, S11P, W12L, L14A, S15L, L19V, V21M, D22G"}, "B3": {"name": "PD-1 1.5 PD008 2001 (antibody, human IgG4 S228P, kappa)", "heavy": "not shown", "light": "B1 light with G8E, L9T, S11N, W12Q, L14E, S15R, V21F, D22A"}, "B4": {"name": "PD-1 1.5 PD013 2001 (antibody, human IgG4 S228P, kappa)", "heavy": "not shown", "light": "B1 light with G8S, L9C, C10P, S11L, W12Y, Y13V, L14M, S17F, L19G, V21W"}, "B5": {"name": "PD-1 1.5 PD014 2001 (antibody, human IgG4 S228P, kappa)", "heavy": "not shown", "light": "B1 light with G8M, L9S, C10H, S11C, Y13M, L14F, G18C, L19D, C20G, D22K"}, "B6": {"name": "PD-1 1.5 PD016 2001 (antibody, human IgG4 S228P, kappa)", "heavy": "not shown", "light": "B1 light with G8V, S11A, W12A, L14A, S15L, L19I, V21G, D22G"}, "B7": {"name": "PD-1 1.5 PD020 2001 (antibody, human IgG4 S228P, kappa)", "heavy": "not shown", "light": "B1 light with G8S, L9V, S11P, W12M, L14A, S15L, G18M, V21G, D22A"}, "B8": {"name": "PD-1 1.5 PD023 2001 (antibody, human IgG4 S228P, kappa)", "heavy": "not shown", "light": "QGQSGQGSMAGCQWSSFCVQRDGGGSSGGSISSGLLSGRSDNHGGGSDIQLTQSPSSLSASVGDRVTITCRASESVDAYGISFMNWFQQKPGKAPKLLIYAASNQGSGVPSRFSGSGSGTDFTLTISSMQPEDFATYYCQQSKDVPWTFGQGTKLEIKRTVAAPSVFIFPPSDEQLKSGTASVVCLLNNFYPREAKVQWKVDNALQSGNSQESVTEQDSKDSTYSLSSTLTLSKADYEKHKVYACEVTHQGLSSPVTKSFNRGEC"}, "B9": {"name": "PD-1 1.5 PD024 2001 (antibody, human IgG4 S228P, kappa)", "heavy": "not shown", "light": "QGQSGQGIYSCYMFASRCTSDKGGGSSGGSISSGLLSGRSDNHGGGSDIQLTQSPSSLSASVGDRVTITCRASESVDAYGISFMNWFQQKPGKAPKLLIYAASNQGSGVPSRFSGSGSGTDFTLTISSMQPEDFATYYCQQSKDVPWTFGQGTKLEIKRTVAAPSVFIFPPSDEQLKSGTASVVCLLNNFYPREAKVQWKVDNALQSGNSQESVTEQDSKDSTYSLSSTLTLSKADYEKHKVYACEVTHQGLSSPVTKSFNRGEC"}, "B10": {"name": "PD-1 1.5 PD01 2001 (antibody, human IgG4 S228P, kappa)", "heavy": "not shown", "light": "B8 light with S8A, A10S, Q13S, S16A, V19P, Q20Y, R21L, D22A"}, "B11": {"name": "PD-1 1.5 PD002 2001 (antibody, human IgG4 S228P, kappa)", "heavy": "not shown", "light": "QGQSGQGDVNCAIWYSVCTTVPGGGSSGGSISSGLLSGRSDNHGGGSDIQLTQSPSSLSASVGDRVTITCRASESVDAYGISFMNWFQQKPGKAPKLLIYAASNQGSGVPSRFSGSGSGTDFTLTISSMQPEDFATYYCQQSKDVPWTFGQGTKLEIKRTVAAPSVFIFPPSDEQLKSGTASVVCLLNNFYPREAKVQWKVDNALQSGNSQESVTEQDSKDSTYSLSSTLTLSKADYEKHKVYACEVTHQGLSSPVTKSFNRGEC"}, "B12": {"name": "PD-1 1.5 PD005 2001 (antibody, human IgG4 S228P, kappa)", "heavy": "not shown", "light": "QGQSGQGMLVCSLQPTAMCERVGGGSSGGSISSGLLSGRSDNHGGGSDIQLTQSPSSLSASVGDRVTITCRASESVDAYGISFMNWFQQKPGKAPKLLIYAASNQGSGVPSRFSGSGSGTDFTLTISSMQPEDFATYYCQQSKDVPWTFGQGTKLEIKRTVAAPSVFIFPPSDEQLKSGTASVVCLLNNFYPREAKVQWKVDNALQSGNSQESVTEQDSKDSTYSLSSTLTLSKADYEKHKVYACEVTHQGLSSPVTKSFNRGEC"}, "B13": {"name": "PD-1 1.5 PD011 2001 (antibody, human IgG4 S228P, kappa)", "heavy": "not shown", "light": "B12 light with M8V, L9P, V10W, S12Q, Q14T, T16R, A17V, E20M, R21W, V22A"}, "B14": {"name": "PD-1 1.5 PD015 2001 (antibody, human IgG4 S228P, kappa)", "heavy": "not shown", "light": "QGQSGQGVSYCTWLIEVTCLRGGGGSSGGSISSGLLSGRSDNHGGGSDIQLTQSPSSLSASVGDRVTITCRASESVDAYGISFMNWFQQKPGKAPKLLIYAASNQGSGVPSRFSGSGSGTDFTLTISSMQPEDFATYYCQQSKDVPWTFGQGTKLEIKRTVAAPSVFIFPPSDEQLKSGTASVVCLLNNFYPREAKVQWKVDNALQSGNSQESVTEQDSKDSTYSLSSTLTLSKADYEKHKVYACEVTHQGLSSPVTKSFNRGEC"}, "B15": {"name": "PD-1 1.5 PD018 2001 (antibody, human IgG4 S228P, kappa)", "heavy": "not shown", "light": "B9 light with I8A, Y9P, S10R, R17Y, T19K, D21Q, K22Y"}, "B16": {"name": "PD-1 1.5 PD021 2001 (antibody, human IgG4 S228P, kappa)", "heavy": "not shown", "light": "QGQSGQGLSVECYVFSRCSSLPGGGSSGGSISSGLLSGRSDNHGGGSDIQLTQSPSSLSASVGDRVTITCRASESVDAYGISFMNWFQQKPGKAPKLLIYAASNQGSGVPSRFSGSGSGTDFTLTISSMQPEDFATYYCQQSKDVPWTFGQGTKLEIKRTVAAPSVFIFPPSDEQLKSGTASVVCLLNNFYPREAKVQWKVDNALQSGNSQESVTEQDSKDSTYSLSSTLTLSKADYEKHKVYACEVTHQGLSSPVTKSFNRGEC"}, "B17": {"name": "PD-1 1.5 PD022 2001 (antibody, human IgG4 S228P, kappa)", "heavy": "not shown", "light": "QGQSGQGFYCTYLVSLTCHPQGGGSSGGSISSGLLSGRSDNHGGGSDIQLTQSPSSLSASVGDRVTITCRASESVDAYGISFMNWFQQKPGKAPKLLIYAASNQGSGVPSRFSGSGSGTDFTLTISSMQPEDFATYYCQQSKDVPWTFGQGTKLEIKRTVAAPSVFIFPPSDEQLKSGTASVVCLLNNFYPREAKVQWKVDNALQSGNSQESVTEQDSKDSTYSLSSTLTLSKADYEKHKVYACEVTHQGLSSPVTKSFNRGEC"}, "B18": {"name": "masking moiety MP001 (peptide)", "peptide": "DYTYCRWVNWCLSGV", "notes": "bacterial display clone; also called MP01; MP-01"}, "B19": {"name": "masking moiety MP002 (peptide)", "peptide": "ILCPEDPWGHKCKLP", "notes": "bacterial display clone; also called MP02; MP-02"}, "B20": {"name": "masking moiety MP003 (peptide)", "peptide": "TNIWSCQTYCDHKHK", "notes": "bacterial display clone; also called MP03"}, "B21": {"name": "masking moiety MP004 (peptide)", "peptide": "SDHKCKLQNCMNTKV", "notes": "bacterial display clone; also called MP04"}, "B22": {"name": "masking moiety MP005 (peptide)", "peptide": "PGNCHPMQKEMCQFI", "notes": "bacterial display clone; also called MP05"}, "B23": {"name": "masking moiety MP006 (peptide)", "peptide": "VEHLCYTHNKCKHPD", "notes": "bacterial display clone; also called MP06"}, "B24": {"name": "masking moiety MP007 (peptide)", "peptide": "TIPRCGQHPKCKDTL", "notes": "bacterial display clone; also called MP07"}, "B25": {"name": "masking moiety MP008 (peptide)", "peptide": "ACRICQDHPKTKWNS", "notes": "bacterial display clone; also called MP08"}, "B26": {"name": "masking moiety MP009 (peptide)", "peptide": "LIQCTGNLDHKCKHY", "notes": "bacterial display clone; also called MP09"}, "B27": {"name": "masking moiety MP010 (peptide)", "peptide": "IPCHHSADHKHKCTS", "notes": "bacterial display clone; also called MP10"}, "B28": {"name": "masking moiety MP011 (peptide)", "peptide": "SRQICADYNCHNKYK", "notes": "bacterial display clone; also called MP11"}, "B29": {"name": "A1.5 (antibody, human IgG4 S228P, kappa)", "heavy": "not shown", "light": "DIQLTQSPSSLSASVGDRVTITCRASESVDAYGISFMNWFQQKPGKAPKLLIYAASNQGSGVPSRFSGSGSGTDFTLTISSMQPEDFATYYCQQSKDVPWTFGQGTKLEIKRTVAAPSVFIFPPSDEQLKSGTASVVCLLNNFYPREAKVQWKVDNALQSGNSQESVTEQDSKDSTYSLSSTLTLSKADYEKHKVYACEVTHQGLSSPVTKSFNRGEC", "notes": "humanized, full length hIgG4/hKappa; also called A1.5 Ab"}},
  "note": "Numbering of substitutions follows the chain as printed.",
  "data": [
    {"target": "T1, human PD-1-Fc (R and D systems, Minneapolis, Minn.) (human, UniProt Q15116 25-167)", "T1 construct": "bought; also called hPD-1-Fc; hPD-1; not shown: Fc part of the bought fusion", "T1 sequence (Q15116 25-167 limits assumed)": "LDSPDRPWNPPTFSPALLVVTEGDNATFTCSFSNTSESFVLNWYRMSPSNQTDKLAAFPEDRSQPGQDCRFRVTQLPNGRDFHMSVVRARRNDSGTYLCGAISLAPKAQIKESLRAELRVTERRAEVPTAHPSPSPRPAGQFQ", "assay": "plate ELISA on human PD-1-Fc; reference A1.5", "values": [
      {"binder": "B1", "Masking Efficiency": 30},
      {"binder": "B2", "Masking Efficiency": 61},
      {"binder": "B3", "Masking Efficiency": 31},
      {"binder": "B4", "Masking Efficiency": 84},
      {"binder": "B5", "Masking Efficiency": 56},
      {"binder": "B6", "Masking Efficiency": 32},
      {"binder": "B7", "Masking Efficiency": 43},
      {"binder": "B8", "Masking Efficiency": 17},
      {"binder": "B9", "Masking Efficiency": 51},
      {"binder": "B10", "Masking Efficiency": 193},
      {"binder": "B11", "Masking Efficiency": 12},
      {"binder": "B12", "Masking Efficiency": 38},
      {"binder": "B13", "Masking Efficiency": 37},
      {"binder": "B14", "Masking Efficiency": 65},
      {"binder": "B15", "Masking Efficiency": 42},
      {"binder": "B16", "Masking Efficiency": 27},
      {"binder": "B17", "Masking Efficiency": 23}
    ]},
    {"target": "T2, J43v2 mIgG2a", "T2 construct": "also called J43 m2a; J43v2 m2a", "T2 sequence (VH, as listed by the source, chain 1 of 2)": "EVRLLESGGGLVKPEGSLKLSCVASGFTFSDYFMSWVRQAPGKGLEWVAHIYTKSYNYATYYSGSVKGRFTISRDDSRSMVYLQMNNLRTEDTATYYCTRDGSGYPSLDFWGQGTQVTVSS", "T2 sequence (VL, as listed by the source, chain 2 of 2)": "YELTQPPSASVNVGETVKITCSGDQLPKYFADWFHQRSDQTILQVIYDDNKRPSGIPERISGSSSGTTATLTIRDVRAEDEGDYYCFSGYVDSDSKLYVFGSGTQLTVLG", "assay": "bacterial display clone with DyLight 650 labeled J43v2 m2a", "values": [
      {"binder": "B18", "binding result": "binds"},
      {"binder": "B19", "binding result": "binds"},
      {"binder": "B20", "binding result": "binds"},
      {"binder": "B21", "binding result": "binds"},
      {"binder": "B22", "binding result": "binds"},
      {"binder": "B23", "binding result": "binds"},
      {"binder": "B24", "binding result": "binds"},
      {"binder": "B25", "binding result": "binds"},
      {"binder": "B26", "binding result": "binds"},
      {"binder": "B27", "binding result": "binds"},
      {"binder": "B28", "binding result": "binds"}
    ]},
    {"target": "T1, human PD-1-Fc (R and D systems, …)", "assay": "plate ELISA on human PD-1-Fc; apparent KD", "units": {"Kd": "nM"}, "values": [
      {"binder": "B1", "Kd": 54},
      {"binder": "B2", "Kd": 109},
      {"binder": "B3", "Kd": 55},
      {"binder": "B4", "Kd": 151},
      {"binder": "B5", "Kd": 100},
      {"binder": "B6", "Kd": 57},
      {"binder": "B7", "Kd": 77},
      {"binder": "B8", "Kd": 31},
      {"binder": "B9", "Kd": 92},
      {"binder": "B29", "Kd": 1.8},
      {"binder": "B10", "Kd": 348},
      {"binder": "B11", "Kd": 21},
      {"binder": "B12", "Kd": 68},
      {"binder": "B13", "Kd": 67},
      {"binder": "B14", "Kd": 117},
      {"binder": "B15", "Kd": 75},
      {"binder": "B16", "Kd": 49},
      {"binder": "B17", "Kd": 41}
    ]}
  ]
}
